# B1: humanized anti-CXCR4 antibody h3G10.1.91.A58B (antibody, V domains shown)
# VH: EVQLVESGGGLVQPGGSLRLSCAASGFTFSDYYMSWVRQAPGKGLEWVGFIRHKANFETTEYSTSVKGRFTISRDDSKNSLYLQMNSLKTEDTAVYYCARDLPGFAYWGQGTLVTVSS
# VL: DIVMTQSPDSLAVSLGERATINCKSSQSLFNSHTRKNYLAWYQQKPGQPPKLLIYWASARGSGVPDRFSGSGSGTDFTLTISSLQAEDVAVYYCKQSFNLRTFGGGTKVEIK
# notes: Whole antibody (detected with an anti-human IgG Fc gamma specific second antibody); also called h3G10.1.91 VH / h3G10.A58B VL; CXCR4 Ab h3G10.1.91.A58B
# Assays:
# cynomolgus CXCR4 [1] = target: T1, cynomolgus CXCR4 (cynomolgus, UniProt Q28474 1-352); assay: flow cytometry on HSC-F (cynomolgus T cell line) cells, dilution series 0.007-267 nM
# T1 construct: whole, on cells; On Cyno-CXCR4 transfected CHO cells and on HSC-F (cynomolgus T cell line); also called Cyno-CXCR4; CynoCXCR4
# T1 sequence (Q28474 whole entry): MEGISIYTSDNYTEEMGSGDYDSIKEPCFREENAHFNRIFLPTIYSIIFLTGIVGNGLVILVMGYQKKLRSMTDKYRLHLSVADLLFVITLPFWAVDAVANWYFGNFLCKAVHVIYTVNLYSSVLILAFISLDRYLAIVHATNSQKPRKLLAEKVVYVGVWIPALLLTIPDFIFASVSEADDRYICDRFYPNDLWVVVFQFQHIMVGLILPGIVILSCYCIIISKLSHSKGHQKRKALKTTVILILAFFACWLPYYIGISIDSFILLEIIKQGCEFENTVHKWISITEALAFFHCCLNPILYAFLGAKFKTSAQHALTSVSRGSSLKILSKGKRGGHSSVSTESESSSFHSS
# Experimental: (§1) Binding was detected by 2nd Ab (Alexa Fluor 647-conjugated goat anti-human IgG, Fcgamma specific, Jackson ImmunoResearch Laboratories, West Grove Pa.) and acquired with LSRFortessa cell analyzer (BD Biosciences, San Jose Calif.). Curve fit and EC50 calculation was performed with Prism software (GraphPad Software, La Jolla Calif.). Tables 9A and 9B and FIGS. 3A and 3B.
# [2] = target: T2, human CXCR4 (chemokine (C-X-C motif) receptor 4) (human, UniProt P61073 1-352); assay: flow cytometry on Raji cells, dilution series 0.007-267 nM
# T2 construct: Endogenous on human tumour cell lines (Ramos, HPB-ALL, Raji, Jurkat, MM1.S, RPMI-8226, MOLP-8, MOLT-4) or transfected into CHO-K1 cells (DiscoveRx); also called CXCR4 receptor
# T2 sequence (P61073 whole entry): as the sequence (Q28474 whole entry) above, with I24M, H35N, R38K, K146R, S176N counted along it
# Experimental: as §1
# cynomolgus CXCR4 [3] = target: T1, cynomolgus CXCR4; assay: flow cytometry on Cyno-CXCR4 transfected CHO cells, dilution series 0.007-267 nM
# Experimental: as §1
# [4] = target: T2, human CXCR4 (chemokine (C-X-C motif) …); assay: cell-based or functional assay
# [5] = target: T2, human CXCR4 (chemokine (C-X-C motif) …); assay: flow cytometry on HPB-ALL cells, dilution series 0.007-267 nM
# Experimental: as §1
# [6] = target: T2, human CXCR4 (chemokine (C-X-C motif) …); assay: cell-based or functional assay; remark: listed apart in the source
binder,measurement,setting,value
B1,EC50,cynomolgus CXCR4 [1],2.58 nM
same,EC50,[2],3.05 nM
same,EC50,cynomolgus CXCR4 [3],0.16 nM
same,"IC50 (M), Calcium Flux Activity (average of 3 experiments)",[4],2.17e-09 M
same,EC50,[5],0.27 nM
same,"EC50 (M), cAMP assay, CHO-K1 cells transfected with human CXCR4",[6],3.92e-08 M
